Results as given in article PMC2862490 (Proteomics, 2009).
Square brackets hold non-standard residues; d marks the D form. Ends that are not written are not given here. pY = N[C@@H](Cc1ccc(OP(=O)(O)O)cc1)C(=O)O; Ahx = NCCCCCC(=O)O

T1: GST tagged C SH2 domain of PLCγ-1 (663–759) (human, UniProt P19174 663-759)
T1 sequence (looked up): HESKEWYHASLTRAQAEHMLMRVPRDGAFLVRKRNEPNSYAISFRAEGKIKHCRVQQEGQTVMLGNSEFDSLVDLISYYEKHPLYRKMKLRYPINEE

T2: GST tagged N SH2 domain of PLCγ-1 (544–659) (human, UniProt P19174 544-659)
T2 sequence (looked up): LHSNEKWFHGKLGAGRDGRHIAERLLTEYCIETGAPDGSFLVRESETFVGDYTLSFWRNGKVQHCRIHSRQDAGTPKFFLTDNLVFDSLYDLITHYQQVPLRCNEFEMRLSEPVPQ


What was measured:
Grb2 SH2 domain, 58-159 = Grb2 SH2 domain, 58-159 (UniProt P62993); assay: immobilised peptide pull-down, anti-GST blot; details: reference: unphosphorylated Y4507 peptide; sites Y4507
[1] = target: PLCγ-1 C SH2 domain, 663-759 (UniProt P19174); assay: immobilised peptide pull-down, anti-GST blot; details: reference: unphosphorylated Y4507 peptide; sites Y4507
[2] = target: PLCγ-1 N SH2 domain, 544-659 (UniProt P19174); assay: immobilised peptide pull-down, anti-GST blot; details: reference: unphosphorylated Y4507 peptide; sites Y4507
CSK, His tagged = CSK, His tagged (UniProt P41240); assay: immobilised peptide pull-down, anti-CSK blot; details: reference: unphosphorylated Y4507 peptide; sites Y4507
[3] = target: Shp-2 (Shp2) SH2(C) domain (UniProt Q06124); assay: immobilised peptide pull-down, anti-ubiquitin tag blot; details: reference: unphosphorylated Y4507 peptide; sites Y4507
[4] = target: Shp-2 (Shp2) SH2(N) domain (UniProt Q06124); assay: as above; details: reference: unphosphorylated Y4507 peptide; sites Y4507
[5] = target: T1, GST tagged C SH2 domain of PLCγ-1 …; assay: pull-down
[6] = target: T2, GST tagged N SH2 domain of PLCγ-1 …; assay: pull-down
[7] = target: GST tagged SH2 domain of Grb2 (58–159) (human, UniProt P62993 58-159); assay: pull-down

Molecule | binding against the reference (Grb2 SH2 domain, 58-159) | binding against the reference [1] | binding against the reference [2] | binding against the reference (CSK, His tagged) | binding against the reference [3] | binding against the reference [4] | binding result [5] | binding result [6] | binding result [7]
LDL receptor-related protein 1 (LRP1) NPXY4507 microdomain (from UniProt Q07954) pY4507 peptide | stronger | stronger | stronger | stronger | stronger | stronger | – | – | –
C[Ahx]TNFTNPV[pY]ATLY [NPXpY_(4507) microdomain of LRP1-CT, tyrosine-phosphorylated] | – | – | – | – | – | – | binds | binds | binds
